Here are results for nine substances from patent US20080057063A1.

Test [1] addresses cynomolgus αVβ6 on cells (cynomolgus). Kind of test: FACS, HEK-293 transfected with cynomolgus αVβ6.
For test [2] the target is unchanged. Kind of test: FACS, K562 cells expressing cynomolgus αVβ6 (parental 46). (A flow cytometer gives signals particle by particle.)
Test [3] has as its target mouse αV (HEK-293 cells transfected with mouse αV alone) (mouse) (UniProt P43406). In words: FACS, HEK-293 transfected with mouse αV.
Test [4] addresses mouse β6 (HEK-293 cells transfected with mouse β6 alone) (mouse) (UniProt Q9Z0T9). Kind of test: FACS, HEK-293 transfected with mouse β6.
The target in test [5] is α4β1 integrin (on J6.77 cells) (UniProt P13612). In words: cell-based or functional assay.
The target in test [6] is cynomolgus β6 (HEK-293 cells transfected with cynomolgus β6 alone) (cynomolgus). Kind of test: FACS, HEK-293 transfected with cynomolgus β6.
Test [7] has as its target mouse αVβ6 on cells (mouse) (UniProt P43406). In words: FACS, K562 cells expressing mouse αVβ6 (parental 46).
Test [8] concerns the target cynomolgus αV (HEK-293 cells transfected with cynomolgus αV alone) (cynomolgus). Kind of test: FACS, HEK-293 transfected with cynomolgus αV.
The target of test [9] is mouse αVβ6 on cells (mouse) (UniProt P43406). In words: FACS, HEK-293 transfected with mouse αVβ6.
mouse αVβ6 on cells (mouse), sequence (P43406 31-1044, chain 1 of 2): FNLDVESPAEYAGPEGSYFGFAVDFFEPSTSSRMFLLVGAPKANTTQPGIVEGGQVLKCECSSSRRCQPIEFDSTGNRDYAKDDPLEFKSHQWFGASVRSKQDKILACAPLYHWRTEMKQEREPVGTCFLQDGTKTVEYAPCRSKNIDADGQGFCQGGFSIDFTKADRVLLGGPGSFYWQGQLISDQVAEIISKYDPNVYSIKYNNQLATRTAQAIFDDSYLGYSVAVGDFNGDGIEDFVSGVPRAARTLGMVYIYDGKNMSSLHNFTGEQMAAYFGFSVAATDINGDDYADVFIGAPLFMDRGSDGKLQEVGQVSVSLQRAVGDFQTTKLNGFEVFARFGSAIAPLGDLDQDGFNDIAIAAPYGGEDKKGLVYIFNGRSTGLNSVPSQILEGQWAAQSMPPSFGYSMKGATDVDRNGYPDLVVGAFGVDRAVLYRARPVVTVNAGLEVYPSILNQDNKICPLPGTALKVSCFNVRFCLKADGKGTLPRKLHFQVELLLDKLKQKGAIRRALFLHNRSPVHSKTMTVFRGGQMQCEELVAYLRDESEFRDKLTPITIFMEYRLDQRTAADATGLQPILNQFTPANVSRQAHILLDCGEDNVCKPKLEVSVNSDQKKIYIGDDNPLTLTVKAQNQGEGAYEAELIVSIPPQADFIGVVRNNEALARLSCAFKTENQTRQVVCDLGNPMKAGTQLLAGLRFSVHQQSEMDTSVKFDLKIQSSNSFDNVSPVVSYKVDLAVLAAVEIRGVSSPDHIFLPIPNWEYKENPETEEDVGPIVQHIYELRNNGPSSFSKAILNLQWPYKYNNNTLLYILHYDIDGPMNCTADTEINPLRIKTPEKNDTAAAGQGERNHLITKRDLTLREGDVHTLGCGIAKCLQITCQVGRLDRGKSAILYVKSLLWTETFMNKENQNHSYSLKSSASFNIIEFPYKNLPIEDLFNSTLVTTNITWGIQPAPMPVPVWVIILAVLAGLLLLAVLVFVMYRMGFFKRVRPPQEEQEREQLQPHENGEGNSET
mouse αVβ6 on cells (mouse), sequence (Q9Z0T9 22-787, chain 2 of 2, further chain): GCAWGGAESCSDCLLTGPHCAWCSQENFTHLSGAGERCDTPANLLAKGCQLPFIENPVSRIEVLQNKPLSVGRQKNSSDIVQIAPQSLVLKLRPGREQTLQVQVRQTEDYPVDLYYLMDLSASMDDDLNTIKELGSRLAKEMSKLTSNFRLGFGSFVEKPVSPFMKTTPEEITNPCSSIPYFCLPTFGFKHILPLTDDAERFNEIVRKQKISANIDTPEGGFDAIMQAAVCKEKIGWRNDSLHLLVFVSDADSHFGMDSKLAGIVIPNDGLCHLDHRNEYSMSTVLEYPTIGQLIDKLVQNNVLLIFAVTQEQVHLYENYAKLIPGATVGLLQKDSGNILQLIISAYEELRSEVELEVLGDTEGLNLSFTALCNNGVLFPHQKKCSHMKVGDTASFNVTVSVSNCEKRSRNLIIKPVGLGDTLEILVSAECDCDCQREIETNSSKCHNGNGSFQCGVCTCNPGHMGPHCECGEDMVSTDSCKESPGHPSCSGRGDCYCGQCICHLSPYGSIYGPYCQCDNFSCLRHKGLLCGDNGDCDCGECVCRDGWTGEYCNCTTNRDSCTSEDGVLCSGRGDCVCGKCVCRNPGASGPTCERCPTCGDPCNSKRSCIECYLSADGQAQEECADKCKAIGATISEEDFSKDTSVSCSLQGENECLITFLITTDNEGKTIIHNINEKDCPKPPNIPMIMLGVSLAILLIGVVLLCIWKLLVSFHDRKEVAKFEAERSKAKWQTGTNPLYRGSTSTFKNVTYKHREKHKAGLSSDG
In test [10] the target is cynomolgus αVβ6 on cells (cynomolgus). Kind of test: FACS, K562 cells expressing cynomolgus αVβ6 (parental 23).
Test [11] has as its target mouse αVβ6 on cells (mouse) (UniProt P43406). In words: FACS, K562 cells expressing mouse αVβ6 (parental 23).
The target in test [12] is cynomolgus αVβ6 on cells (cynomolgus). Kind of test: FACS, HEK-293 transfected with cynomolgus αV and β6, day 1.
The target of test [13] is human αV on parental A375M cells, which express αVβ3 and αVβ5, but not αVβ6 (human) (UniProt P06756). In words: FACS, parental A375M cells, day 2.
human αV on parental A375M cells, which express αVβ3 and αVβ5, but not αVβ6 (human), sequence (P06756 31-1048 A375M): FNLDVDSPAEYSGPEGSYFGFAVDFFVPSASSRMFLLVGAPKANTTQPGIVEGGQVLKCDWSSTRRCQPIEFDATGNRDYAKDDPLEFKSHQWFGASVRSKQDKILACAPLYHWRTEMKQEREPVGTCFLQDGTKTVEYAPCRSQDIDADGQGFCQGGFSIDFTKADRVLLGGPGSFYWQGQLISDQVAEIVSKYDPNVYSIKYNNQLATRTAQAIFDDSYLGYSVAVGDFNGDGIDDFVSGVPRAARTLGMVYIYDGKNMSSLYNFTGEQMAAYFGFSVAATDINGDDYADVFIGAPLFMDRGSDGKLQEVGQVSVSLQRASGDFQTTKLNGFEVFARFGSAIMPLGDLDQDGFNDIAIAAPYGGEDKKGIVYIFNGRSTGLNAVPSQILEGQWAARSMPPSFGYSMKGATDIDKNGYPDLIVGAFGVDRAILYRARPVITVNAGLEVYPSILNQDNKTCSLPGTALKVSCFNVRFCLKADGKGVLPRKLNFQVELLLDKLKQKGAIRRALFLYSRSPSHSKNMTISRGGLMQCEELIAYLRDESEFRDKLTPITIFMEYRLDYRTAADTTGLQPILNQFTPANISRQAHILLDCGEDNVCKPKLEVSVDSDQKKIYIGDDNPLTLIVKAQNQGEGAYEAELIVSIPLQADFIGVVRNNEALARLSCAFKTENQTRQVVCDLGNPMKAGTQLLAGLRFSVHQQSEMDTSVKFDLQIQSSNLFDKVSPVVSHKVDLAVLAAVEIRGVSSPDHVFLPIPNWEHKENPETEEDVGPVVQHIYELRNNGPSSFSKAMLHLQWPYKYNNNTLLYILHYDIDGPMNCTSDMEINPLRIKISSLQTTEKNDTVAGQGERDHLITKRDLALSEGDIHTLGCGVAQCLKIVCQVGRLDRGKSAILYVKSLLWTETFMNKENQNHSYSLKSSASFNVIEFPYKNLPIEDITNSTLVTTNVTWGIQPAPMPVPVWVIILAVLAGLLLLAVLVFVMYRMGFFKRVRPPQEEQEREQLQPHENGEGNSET
For test [14] the target is unchanged. In words: FACS, parental A375M cells, day 1.
The target in test [15] is cynomolgus αVβ6 on cells (cynomolgus). Kind of test: FACS, HEK-293 transfected with cynomolgus αV and β6, day 2.
For test [16], the target named is mouse αVβ6 on cells (mouse) (UniProt P43406). Kind of test: FACS, K562 cells expressing mouse αVβ6 (parental 12).
Test [17] deals with cynomolgus αVβ6 on cells (cynomolgus). In words: FACS, K562 cells expressing cynomolgus αVβ6 (parental 12).
Test [18] has the same target. Kind of test: FACS, K562 cells expressing cynomolgus αVβ6 (parental 15).
In test [19] the target is human αVβ6 integrin on cells (human) (UniProt P06756). Kind of test: cell-based or functional assay.
human αVβ6 integrin on cells (human), sequence (P06756 31-1048, chain 1 of 2): as the sequence (P06756 31-1048 A375M) above, with M345A counted along it
human αVβ6 integrin on cells (human), sequence (P18564 22-788, chain 2 of 2, further chain): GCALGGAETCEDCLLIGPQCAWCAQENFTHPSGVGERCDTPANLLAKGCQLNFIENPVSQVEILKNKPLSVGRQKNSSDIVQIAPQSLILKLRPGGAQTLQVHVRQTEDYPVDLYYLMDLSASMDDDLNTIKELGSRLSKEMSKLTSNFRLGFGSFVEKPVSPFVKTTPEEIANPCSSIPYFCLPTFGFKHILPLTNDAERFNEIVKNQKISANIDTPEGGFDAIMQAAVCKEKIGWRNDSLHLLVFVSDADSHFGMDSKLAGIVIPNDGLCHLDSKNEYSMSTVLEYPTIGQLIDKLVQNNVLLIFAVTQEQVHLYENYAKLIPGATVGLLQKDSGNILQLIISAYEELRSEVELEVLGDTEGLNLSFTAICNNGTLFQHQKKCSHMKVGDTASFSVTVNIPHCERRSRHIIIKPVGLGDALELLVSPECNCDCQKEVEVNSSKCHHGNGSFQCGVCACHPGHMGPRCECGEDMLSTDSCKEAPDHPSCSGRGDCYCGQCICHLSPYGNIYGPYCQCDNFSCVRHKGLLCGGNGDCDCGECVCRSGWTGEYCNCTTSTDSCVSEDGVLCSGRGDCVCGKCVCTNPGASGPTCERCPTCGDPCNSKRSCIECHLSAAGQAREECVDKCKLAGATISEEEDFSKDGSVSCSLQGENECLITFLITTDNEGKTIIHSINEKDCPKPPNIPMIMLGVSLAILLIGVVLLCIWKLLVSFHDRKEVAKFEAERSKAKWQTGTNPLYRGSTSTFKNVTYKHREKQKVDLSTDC
A further test concerns the target soluble αVβ6 (human) (UniProt P06756). Kind of test: ELISA on coated soluble αVβ6, 1 ug/mL.
The target in test [20] is human αVβ6 integrin on cells (human) (UniProt P06756). In words: FMAT, HEK 293 cells overexpressing αVβ6, 1 ug/mL.
For test [21], the target named is mouse αVβ6 on cells (mouse) (UniProt P43406). Kind of test: FACS, K562 cells expressing mouse αVβ6 (parental 15).
Test [22] has as its target human αV on parental A375M cells, which express αVβ3 and αVβ5, but not αVβ6 (human) (UniProt P06756). In words: cell-based or functional assay.
Test [23] has as its target α5β1 integrin (on K562 cells) (UniProt P08648). Kind of test: cell-based or functional assay.

mouse β6 (HEK-293 cells transfected with mouse β6 alone) (mouse), sequence (Q9Z0T9 22-787): as the sequence (Q9Z0T9 22-787, chain 2 of 2, further chain) above
mouse αV (HEK-293 cells transfected with mouse αV alone) (mouse), sequence (P43406 31-1044): as the sequence (P43406 31-1044, chain 1 of 2) above

With Human IgG1 (antibody), the percent of cells shifted was 0% in [1]; 1% in [3]; 0% in test [4]; 1% in test [6]; 1% in [8]; 1% in [9]. The Geometric Mean Shift in [2] is 54; in test [7], 108. The same substance returned a Percent Inhibition (J6.77 adhesion to CS-1 peptide of fibronectin, 5 ug/ml) in [5] of 26%.
Turning to Mouse IgG2a (antibody), the Geometric Mean Shift is 25 in [10] and 36 in [11].
As to “Mouse IgG2 with Murine Secondary Antibody”, the % Cells Shifted in test [12] was 1%; in test [13], 3%; in [14], 4%; in test [15], 0%. In addition, the GeoMean in test [12] is 8.85; in test [13], 11.2; in test [14], 1.67; in test [15] it was 11.2.
Regarding Mouse IgG1 (antibody), the Geometric Mean Shift in [16] was 20; in test [17], 13.
In the case of “murine αVβ6 antibody (Cat#MAB2077z, Chemicon)”, the percent of cells shifted in test [1] came to 20%; in test [3] it was 1%; in test [4] it was 11%; in test [6], 5%; in [8], 0%; in [9], 45%. The Geometric Mean Shift is 84 in [18] and 122 in test [21]. In addition, the % Cells Shifted worked out at 42% in test [12], 5% in test [13], 30% in test [14] and 11% in test [15]. Also, the GeoMean in test [12] was found to be 55.5; in [13], 15.4; in test [14], 2.03; in test [15], 28.1. Besides, the Estimated IC50, n = 1 (HT29 adhesion to TGFβLAP) in [19] was 0.226 µg/mL. Moreover, the Estimated IC50, n = 2 (HT29 adhesion to TGFβLAP) in test [19] is 0.185 µg/mL. The Estimated IC50, n = 3 (HT29 adhesion to TGFβLAP) in test [19] was 0.286 µg/mL. Also, the ELISA OD in the test with soluble αVβ6 (human) came to 6. In test [20], this substance had an FMAT Count of 67. In [20], the FMAT FL1 was found to be 659. The substance also showed an FMAT FL1 × Count in test [20] of 44200.
For the substance Human IgG Isotype Control (antibody), the % Cells Shifted amounted to 1% in [12], 1% in test [13], 5% in test [14] and 0% in test [15]. Also, the GeoMean was determined as 9.54 in [12], 7.23 in test [13], 1.66 in test [14] and 7.39 in test [15]. Also, in test [22], the Percent Inhibition (A375M adhesion to osteopontin peptide, 5 µg/ml) was determined as 3%. Moreover, in test [23], the % Inhibition (K562 adhesion to fibronectin) is -12%. In test [23], this substance showed a Percent Inhibition (K562 adhesion to FN9-10 peptide of fibronectin, 5 µg/ml) of 11%.
Consider Mouse IgG Control (antibody), for which the Percent Inhibition (A375M adhesion to osteopontin peptide, 5 µg/ml) in test [22] is 5%.
Consider Human IgG2 (antibody), for which the Percent Inhibition (J6.77 adhesion to CS-1 peptide of fibronectin, 5 ug/ml) in test [5] is 13%.
Human IgG4 (antibody) came in with a Percent Inhibition (J6.77 adhesion to CS-1 peptide of fibronectin, 5 ug/ml) in test [5] of 15%.
